Measurements: patent US20090233982
Read-outs that look alike come from different tables or passages of the source.

Assays:
Dnmt1 (Mus musculus) = details: 14C-SAM incorporation; as efficient as Misu
[1] = molecular target: Misu (full length, mouse) (Mus musculus) (UniProt Q1HFZ0); details: 14C-SAM incorporation, 37 C 1 h
[2] = molecular target: Misu (full length, mouse) (Mus musculus) (UniProt Q1HFZ0); details: 14C-SAM incorporation, 37 C 1 h, DNase treated; about two fold without DNase

Misu (full length, mouse) (Mus musculus), sequence (Q1HFZ0 whole entry): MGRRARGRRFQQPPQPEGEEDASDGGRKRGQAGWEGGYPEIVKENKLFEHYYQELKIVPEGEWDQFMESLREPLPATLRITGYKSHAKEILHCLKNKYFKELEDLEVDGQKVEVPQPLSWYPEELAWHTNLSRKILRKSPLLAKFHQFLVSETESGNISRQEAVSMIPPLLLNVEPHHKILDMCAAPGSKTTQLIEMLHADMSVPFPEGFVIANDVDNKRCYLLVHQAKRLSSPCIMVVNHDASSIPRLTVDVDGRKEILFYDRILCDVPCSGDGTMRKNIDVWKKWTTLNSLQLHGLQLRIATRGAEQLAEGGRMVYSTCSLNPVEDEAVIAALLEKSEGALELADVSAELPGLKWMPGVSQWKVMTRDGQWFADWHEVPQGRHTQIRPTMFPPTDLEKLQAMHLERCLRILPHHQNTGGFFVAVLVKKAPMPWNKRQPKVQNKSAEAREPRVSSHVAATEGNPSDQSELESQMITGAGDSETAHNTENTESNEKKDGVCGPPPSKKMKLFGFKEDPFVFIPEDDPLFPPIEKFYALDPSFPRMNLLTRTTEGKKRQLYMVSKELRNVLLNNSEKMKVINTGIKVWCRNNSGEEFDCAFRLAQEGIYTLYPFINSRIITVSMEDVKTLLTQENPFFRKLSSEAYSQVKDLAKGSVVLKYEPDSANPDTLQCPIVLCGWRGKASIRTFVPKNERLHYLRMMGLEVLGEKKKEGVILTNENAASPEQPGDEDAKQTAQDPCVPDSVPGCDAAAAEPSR

Substance | activity (fold over control) (Dnmt1 (Mus musculus)) | activity (fold over control) [1] | activity (fold over control) [2] | activity (fold over control) ([1]; 5mC on one strand (hemi-methylated), retained after RNase)
E. coli rRNA | 2 | 2 | – | –
E. coli tRNA | 2 | – | 3 | –
hemi-methylated double stranded oligonucleotide | – | – | – | 2
